Reference: patent publication US20230002480A1

Legend:
Experiment in all cases: cell-based or functional assay
[1] = target: HIV-1 Env of pseudovirus R1166.c01 (HIV-1)
[2] = target: HIV-1 Env of pseudovirus C2101.c01 (HIV-1)
[3] = target: HIV-1 Env of pseudovirus 3365.v2.c2 (HIV-1)
[4] = target: HIV-1 Env of pseudovirus BJOX009000.02.4 (HIV-1)
[5] = target: HIV-1 Env of pseudovirus 263-8 (HIV-1)
[6] = target: HIV-1 Env of pseudovirus 211-9 (HIV-1)
[7] = target: HIV-1 Env of pseudovirus 928-28 (HIV-1)
[8] = target: HIV-1 Env of pseudovirus 191084 B7-19 (HIV-1)
[9] = target: HIV-1 Env of pseudovirus 6041.v3.c23 (HIV-1)
[10] = target: HIV-1 Env of pseudovirus 3817.v2.c59 (HIV-1)
[11] = target: HIV-1 Env of pseudovirus 3301.v1.c24 (HIV-1)
[12] = target: HIV-1 Env of pseudovirus 9004SS_A3_4 (HIV-1)
[13] = target: HIV-1 Env of pseudovirus 6811.v7.c18 (HIV-1)
[14] = target: HIV-1 Env of pseudovirus T278-50 (HIV-1)
[15] = target: HIV-1 Env of pseudovirus 620345.c01 (HIV-1)
[16] = target: HIV-1 Env of pseudovirus 235-47 (HIV-1)
[17] = target: HIV-1 Env of pseudovirus T250-4 (HIV-1)
[18] = target: HIV-1 Env of pseudovirus 3103.v3.c10 (HIV-1)
[19] = target: HIV-1 Env of pseudovirus CNE8 (HIV-1)

## N49P11 (antibody)
[1]
  IC50: 0.06 µg/mL
  IC80: 0.336 µg/mL
  MPI: 100
[2]
  IC50: 0.084 µg/mL
  IC80: 0.505 µg/mL
  MPI: 100
[3]
  IC50: 0.064 µg/mL
  IC80: 0.452 µg/mL
  MPI: 100
[4]
  IC50: 2.84 µg/mL
  IC80: 10.6 µg/mL
  MPI: 100
[5]
  IC50: 0.064 µg/mL
  IC80: 0.259 µg/mL
  MPI: 100
[6]
  IC50: 5.67 µg/mL
  IC80: 18.2 µg/mL
  MPI: 100
[7]
  IC50: 5.46 µg/mL
  IC80: 25 µg/mL
  MPI: 100
[8]
  IC50: 0.065 µg/mL
  IC80: 0.276 µg/mL
  MPI: 100
[9]
  IC50: 4.42 µg/mL
  IC80: 17.6 µg/mL
  MPI: 100
[10]
  IC50: 4.72 µg/mL
  IC80: 15.9 µg/mL
  MPI: 100
[11]
  IC50: 1.98 µg/mL
  IC80: 15.7 µg/mL
  MPI: 100
[12]
  IC50: 0.296 µg/mL
  IC80: 3.24 µg/mL
  MPI: 100
[13]
  IC50: 3.68 µg/mL
  IC80: 14.6 µg/mL
  MPI: 100
[14]
  IC50: 7.63 µg/mL
  IC80: 25.1 µg/mL
  MPI: 100
[15]
  IC50: 11.7 µg/mL
  IC80: 27.9 µg/mL
  MPI: 100
[16]
  IC50: 3.88 µg/mL
  IC80: 21.2 µg/mL
  MPI: 100
[17]
  IC50: 6.28 µg/mL
  IC80: 25.6 µg/mL
  MPI: 100
[18]
  IC50: 12.6 µg/mL
  IC80: 26.4 µg/mL
  MPI: 100
[19]
  IC50: 0.165 µg/mL
  IC80: 1.24 µg/mL
  MPI: 100

## N49P18.1 (antibody)
[1]
  IC50: 19.2 µg/mL
  IC80: > 50 µg/mL
  MPI: 78
[2]
  IC50: 15.3 µg/mL
  IC80: 41.9 µg/mL
  MPI: 85
[3]
  IC50: 4.72 µg/mL
  IC80: 14.3 µg/mL
  MPI: 99
[4]
  IC50: 0.418 µg/mL
  IC80: 1.43 µg/mL
  MPI: 100
[5]
  IC50: 3.96 µg/mL
  IC80: 41 µg/mL
  MPI: 90
[6]
  IC50: 18.3 µg/mL
  IC80: > 50 µg/mL
  MPI: 73
[7]
  IC50: 22.7 µg/mL
  IC80: > 50 µg/mL
  MPI: 71
[8]
  IC50: 5.59 µg/mL
  IC80: 16.9 µg/mL
  MPI: 98
[9]
  IC50: 3.05 µg/mL
  IC80: 12.2 µg/mL
  MPI: 96
[10]
  IC50: > 50 µg/mL
  IC80: > 50 µg/mL
  MPI: 34
[11]
  IC50: 3.25 µg/mL
  IC80: 11.3 µg/mL
  MPI: 99
[12]
  IC50: 3.02 µg/mL
  IC80: 13.9 µg/mL
  MPI: 99
[13]
  IC50: 7.43 µg/mL
  IC80: 31.9 µg/mL
  MPI: 94
[14]
  IC50: > 50 µg/mL
  IC80: > 50 µg/mL
  MPI: 36
[15]
  IC50: > 50 µg/mL
  IC80: > 50 µg/mL
  MPI: 0
[16]
  IC50: 23 µg/mL
  IC80: > 50 µg/mL
  MPI: 66
[17]
  IC50: 4.86 µg/mL
  IC80: 15.1 µg/mL
  MPI: 94
[18]
  IC50: 8.56 µg/mL
  IC80: 32.4 µg/mL
  MPI: 93
[19]
  IC50: 16.2 µg/mL
  IC80: 44.7 µg/mL
  MPI: 83
